These results are taken from article PMC12274614, “Scavenger receptor CD163 multimerises to allow uptake of diverse ligands” (Nature Communications, 2025).

The target in test [1] is CD163 ectodomain (CD163-WT) (human) (UniProt Q86VB7).
Test [2] concerns the target haptoglobin Hp(1-1) (human) (UniProt P00738). Briefly: MST; Monolith NT.115, 25 °C, 20 mM HEPES pH 7.5, 150 mM NaCl, […] CaCl2; Alexa Fluor 647-labelled Hb (200 nM) or Hp(1-1) (500 nM or 1.0 μM) held constant, CD163 ectodomain (WT or R809T-BAP) titrated.
Test [3] concerns the target T1, CD163-WT ectodomain (C-tag, without BAP tag) (human, UniProt Q86VB7-1 46-1050).
T1 construct: Cloned into pHLsec with a C-terminal GAA linker and a C-tag; Dimers and trimers in the cryo-EM structures; also called WT CD163; CD163A
Briefly: MST; Monolith NT.115, 25 °C; 20 mM HEPES pH 7.5, 150 mM NaCl, 2.5 mM CaCl2; fluorescent Hb (200 nM) or Hp(1-1) (0.50 µM) mixed with two-fold dilution series of CD163 (WT from 24.4 or 37.9 µM, R809T from 41.5 µM); fit to the combined triplicate. To be noted: both partners purified.

In test [1], “Hp(2-2)Hb (haptoglobin isoform 2 - haemoglobin complex) (from UniProt P00738-1 19-160; P00738-1 162-406)” displayed an IC50 of competition for the uptake of 50 nM labelled Hp(2-2)Hb into HEK293 cells expressing full-length CD163-GFP, FACS of 40 nM and an uptake of fluorescently labelled Hp(2-2)Hb (0-600 nM) into HEK293 cells with or without full-length CD163-GFP (residues 46-1156), FACS of 10 fold.
For orientation: Kd means the equilibrium constant for the complex coming apart. Molecule “CD163 ectodomain (CD163-WT) (from UniProt Q86VB7-1 46-1050) (domain or fragment)” returned a Kd in test [2] of 27 µM.

B1: Haptoglobin Hp(1-1), fluorescently labelled (natural protein)
chain 1: VDSGNDVTDIADDGCPKPPEIAHGYVEHSVRYQCKNYYKLRTEGDGVYTLNNEKQWINKAVGDKLPECEAVCGKPKNPANPVQ
chain 2: ILGGHLDAKGSFPWQAKMVSHHNLTTGATLINEQWLLTTAKNLFLNHSENATAKDIAPTLTLYVGKKQLVEIEKVVLHPNYSQVDIGLIKLKQKVSVNERVMPICLPSKDYAEVGRVGYVSGWGRNANFKFTDHLKYVMLPVADQDQCIRHYEGSTVPEKKTPKSPVGVQPILNEHTFCAGMSKYQEDTCYGDAGSAFAVHDLEEDTWYATGILSFDKSCAVAEYGVYVKVTSIQDWVQKTIAEN
modifications: Alexa Fluor 647 (NHS ester labelling of the protein; sites not stated) | Alexa Fluor 647 (NHS ester labelling of the protein; sites not stated)
Take B1: the Kd in test [3] amounted to 26.6 µM.
